How the values were obtained:
[1] = molecular target: the molecule itself; assay: SEC + other: negative-stain EM; Superose 6 Increase 10/300 GL in 50 mM HEPES pH 7.5, 150 mM NaCl, 0.5 mM TCEP, 10 mM MgCl2, 1 mM ADP; elution against a gel filtration standard; SEC fractions of peak 2 imaged after 2 % uranyl acetate stain
[2] = molecular target: the molecule itself; assay: SEC-MALS; peak 2 fractions (C7-D4) pooled, 1.3 mg/mL; Superose 6 Increase 10/300 GL in lysis buffer (50 mM HEPES pH 7.5, 150 mM NaCl, 0.5 mM TCEP, 10 mM MgCl2, 1 mM ADP); 0.5 mL/min

B1: MBP-NLRP3(Δexon3) + GSGAGG linker (natural protein, human)
chain: MASTRCKLARYLEDLEDVDLKKFKMHLEDYPPQKGCIPLPRGQTEKADHVDLATLMIDFNGEEKAWAMAVWIFAAINRRDLYEKAKRDEPKWGSGAGGDYRKKYRKYVRSRFQCIEDRNARLGESVSLNKRYTRLRLIKEHRSQQEREQELLAIGKTKTCESPVSPIKMELLFDPDDEHSEPVHTVVFQGAAGIGKTILARKMMLDWASGTLYQDRFDYLFYIHCREVSLVTQRSLGDLIMSCCPDPNPPIHKIVRKPSRILFLMDGFDELQGAFDEHIGPLCTDWQKAERGDILLSSLIRKKLLPEASLLITTRPVALEKLQHLLDHPRHVEILGFSEAKRKEYFFKYFSDEAQARAAFSLIQENEVLFTMCFIPLVCWIVCTGLKQQMESGKSLAQTSKTTTAVYVFFLSSLLQPRGGSQEHGLCAHLWGLCSLAADGIWNQKILFEESDLRNHGLQKADVSAFLRMNLFQKEVDCEKFYSFIHMTFQEFFAAMYYLLEEEKEGRTNVPGSRLKLPSRDVTVLLENYGKFEKGYLIFVVRFLFGLVNQERTSYLEKKLSCKISQQIRLELLKWIEVKAKAKKLQIQPSQLELFYCLYEMQEEDFVQRAMDYFPKIEINLSTRMDHMVSSFCIENCHRVESLSLGFLHNMPKEEEEEEKEGRHLDMVQCVLPSSSHAACSHGLVNSHLTSSFCRGLFSVLSTSQSLTELDLSDNSLGDPGMRVLCETLQHPGCNIRRLWLGRCGLSHECCFDISLVLSSNQKLVELDLSDNALGDFGIRLLCVGLKHLLCNLKKLWLVSCCLTSACCQDLASVLSTSHSLTRLYVGENALGDSGVAILCEKAKNPQCNLQKLGLVNSGLTSVCCSALSSVLSTNQNLTHLYLRGNTLGDKGIKLLCEGLLHPDCKLQVLELDNCNLTSHCCWDLSTLLTSSQSLRKLSLGNNDLGDLGVMMFCEVLKQQSCLLQNLGLSEMYFNYETKSALETLQEEKPELTVVFEPSW
notes: NLRP3, human, UniProt Q96P20, residues 3-94 (before the deleted exon 3 linker 95-134); short flexible linker that replaces residues 95-134; NLRP3, human, UniProt Q96P20, residues 135-1036 (after the deleted exon 3 linker 95-134); also called ∆95-134 + linker (GSGAGG); source: baculovirus-infected Sf9 insect cells, purified (MBP-trap, SEC on Superose 6 Increase); not shown: MBP, N-terminal, kept
B1: binds [1].

B2: MBP-NLRP3(Δexon3) (natural protein, human, UniProt Q96P20 3-1036, looked up)
chain: MASTRCKLARYLEDLEDVDLKKFKMHLEDYPPQKGCIPLPRGQTEKADHVDLATLMIDFNGEEKAWAMAVWIFAAINRRDLYEKAKRDEPKWDYRKKYRKYVRSRFQCIEDRNARLGESVSLNKRYTRLRLIKEHRSQQEREQELLAIGKTKTCESPVSPIKMELLFDPDDEHSEPVHTVVFQGAAGIGKTILARKMMLDWASGTLYQDRFDYLFYIHCREVSLVTQRSLGDLIMSCCPDPNPPIHKIVRKPSRILFLMDGFDELQGAFDEHIGPLCTDWQKAERGDILLSSLIRKKLLPEASLLITTRPVALEKLQHLLDHPRHVEILGFSEAKRKEYFFKYFSDEAQARAAFSLIQENEVLFTMCFIPLVCWIVCTGLKQQMESGKSLAQTSKTTTAVYVFFLSSLLQPRGGSQEHGLCAHLWGLCSLAADGIWNQKILFEESDLRNHGLQKADVSAFLRMNLFQKEVDCEKFYSFIHMTFQEFFAAMYYLLEEEKEGRTNVPGSRLKLPSRDVTVLLENYGKFEKGYLIFVVRFLFGLVNQERTSYLEKKLSCKISQQIRLELLKWIEVKAKAKKLQIQPSQLELFYCLYEMQEEDFVQRAMDYFPKIEINLSTRMDHMVSSFCIENCHRVESLSLGFLHNMPKEEEEEEKEGRHLDMVQCVLPSSSHAACSHGLVNSHLTSSFCRGLFSVLSTSQSLTELDLSDNSLGDPGMRVLCETLQHPGCNIRRLWLGRCGLSHECCFDISLVLSSNQKLVELDLSDNALGDFGIRLLCVGLKHLLCNLKKLWLVSCCLTSACCQDLASVLSTSHSLTRLYVGENALGDSGVAILCEKAKNPQCNLQKLGLVNSGLTSVCCSALSSVLSTNQNLTHLYLRGNTLGDKGIKLLCEGLLHPDCKLQVLELDNCNLTSHCCWDLSTLLTSSQSLRKLSLGNNDLGDLGVMMFCEVLKQQSCLLQNLGLSEMYFNYETKSALETLQEEKPELTVVFEPSW
notes: NLRP3, human, UniProt Q96P20, residues 3-1036 with the linker region encoded by exon 3 (residues 95-134) deleted; a TEV site stands between MBP and NLRP3; Calculated mass of the MBP-NLRP3(Δexon3) monomer is printed as 154.8 kDa; also called MBP-NLRP3 (∆95-134); source: baculovirus-infected Sf9 insect cells, purified (MBP-trap, SEC on Superose 6 Increase); not shown: MBP, N-terminal, kept
For B2, the “stoichiometry N” value [2] was 2.
